Series [1] concerns the target T1, mHVEM:Fas (mouse | human, UniProt Q80WM9 39-206; P25445 169-335).
T1 chain: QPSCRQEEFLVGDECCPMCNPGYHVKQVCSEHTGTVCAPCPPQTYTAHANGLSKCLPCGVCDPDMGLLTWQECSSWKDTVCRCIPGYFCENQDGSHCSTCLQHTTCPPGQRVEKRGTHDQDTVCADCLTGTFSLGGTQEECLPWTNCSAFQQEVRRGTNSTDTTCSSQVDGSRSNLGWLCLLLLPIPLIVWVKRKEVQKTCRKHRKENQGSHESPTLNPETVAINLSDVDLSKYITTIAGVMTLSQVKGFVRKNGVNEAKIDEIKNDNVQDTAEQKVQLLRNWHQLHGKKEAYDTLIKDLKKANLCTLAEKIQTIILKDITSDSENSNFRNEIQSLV
Kind of series: cell-based or functional assay.

Series [2] concerns the molecule itself. Nature of the series: SEC; Superdex S200 Increase HR 10/30 in PBS, 0.55 ml/min, 250 µl of affinity-purified protein; 1 ml fractions analysed by Western blot and on reporter cells; column calibrated with protein standards. For orientation: In gel filtration, larger molecules generally elute earlier.

B1: Ig.Foldon-mLIGHT (Fc fusion)
chain: GYIPEAPRDGQAYVRKDGEWVLLSTFLDGGKGSWEKLIQDQRSHQANPAAHLTGANASLIGIGGPLLWETRLGLAFLRGLTYHDGALVTMEPGYYYVYSKVQLSGVGCPQGLANGLPITHGLYKRTSRYPKELELLVSRRSPCGRANSSRVWWDSSFLGGVVHLEAGEEVVVRVPGNRLVRPRDGTRSYFGAFMV
For B1, in series [1], the “EC50 of killing of mHVEM:Fas reporter cells (MTS/PMS) by conditioned supernatants of B16.F10 cells expressing Ig.Foldon-mLIGHT” value was 1.9 ng/mL and the “EC50 of killing of mHVEM:Fas reporter cells (MTS/PMS) by purified Ig.Foldon-mLIGHT” value is 51 ng/mL.

B2: Flag-Foldon-mLIGHT (ligand)
chain: GYIPEAPRDGQAYVRKDGEWVLLSTFLDGGKGSWEKLIQDQRSHQANPAAHLTGANASLIGIGGPLLWETRLGLAFLRGLTYHDGALVTMEPGYYYVYSKVQLSGVGCPQGLANGLPITHGLYKRTSRYPKELELLVSRRSPCGRANSSRVWWDSSFLGGVVHLEAGEEVVVRVPGNRLVRPRDGTRSYFGAFMV
notes: Foldon, small homotrimeric domain; mouse LIGHT (TNFSF14, CD258), aa 72-239 of the 239 amino acids-long protein; the majority ran as poorly active species of around 500 kDa; also called pIB-173; source: HEK-293T, conditioned supernatant
A word on the stoichiometry N: it is the number of molecules, sites or subunits per partner or assembly. As for B2, in series [2], the “stoichiometry N” value stood at 3.

The values above are taken from publication PMC12287161, “A bioactive soluble recombinant mouse LIGHT promotes effective tumor immune cell infiltration delaying tumor growth” (Journal of Molecular Medicine (Berlin, Germany), 2025).
